Data taken from patent publication US20120269815A1, “NEUROTROPHINS AND USES THEREOF” (Regents of the University of Minnesota, priority 2008, published 2012).

Assays:
[1] = target: T1, p75^NTR (Homo sapiens, UniProt P08138); assay: Fluorescence-labeled TUF1 peptide binding to COS7 cells expressing p75NTR; settings: labeled peptide 5 nM, 90 min, COS7 cells transfected with pCMV-SPORT6-p75
T1 construct: host or cells: COS7
T1 sequence (P08138 29-427): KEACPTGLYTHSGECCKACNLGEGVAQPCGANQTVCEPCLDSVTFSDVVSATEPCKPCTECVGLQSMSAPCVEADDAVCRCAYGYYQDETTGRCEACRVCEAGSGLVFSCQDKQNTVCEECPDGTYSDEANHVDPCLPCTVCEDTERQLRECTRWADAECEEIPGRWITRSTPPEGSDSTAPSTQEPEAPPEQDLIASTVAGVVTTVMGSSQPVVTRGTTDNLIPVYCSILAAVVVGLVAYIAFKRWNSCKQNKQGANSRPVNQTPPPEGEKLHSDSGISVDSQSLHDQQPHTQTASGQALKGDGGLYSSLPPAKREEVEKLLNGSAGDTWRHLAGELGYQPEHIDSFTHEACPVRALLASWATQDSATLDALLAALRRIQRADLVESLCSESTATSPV
Protocol: COS7 cells were seeded at 10,000 cells/well onto a 18 mm coverslip in a 12-well plate. Cells were allowed to settle overnight in a cell culture incubator (NuAire NU-8600, NuAire, Inc., Plymouth, Minn.) set at 37° C. and 5% CO2. Cells were transfected with pCMV-eGFP (Clontech Laboratories, Inc., Mountain View, Calif.) or pCMV-SPORT6-p75 (ATCC) using Fugene HD (Roche Diagnostics Corp., Indianapolis, Ind.) and were incubated overnight. The binding assays were carried out according to Horton et al. with modifications. Synthetic TUF1 peptides (TUF1[43-54] (SEQ ID NO:1) and TUF1[24-40] (SEQ ID NO:3) were generated (via Sigma Genosys, Sigma-Aldrich Co. St. Louis, Mo.) and were conjugated per manufacturer's recommendation with DyLight 549 NHS Ester (Thermo Fisher Scientific, Waltham, Mass.), which have similar spectra to Cy3 dye. Unconjugated dye was removed with a dye removal column (Thermo Fisher Scientific, Waltham, Mass.). Labeled peptides were diluted to 5 nM in 0.15 M Sucrose/PBS and added (1.0 ml/well) to transfected COS7 cells. The binding reaction was incubated in the dark at room temperature for 90 minutes. Cells were rinsed thoroughly with PBS+0.05% Tween-20 to remove unbound peptide. Cells were then fixed with 4% Paraformaldehyde (5 minutes).
Following fixation, cells were permeabilized in PBS+0.1% Tween-20 for 10 minutes, rinsed thoroughly with PBS, and blocked in BSA (10 mg/ml) for 10 minutes. Cells were incubated with rabbit anti-p75^NTR antibody (1:10,000 dilution) for 30 minutes. Excess antibody was removed with PBS washes. Cells were then incubated with Alexa-488 goat anti-rabbit antibody (1:500 dilution, Invitrogen). Cells were again rinsed thoroughly with PBS and mounted in Vectashield mounting media plus DAPI (Vector Laboratories, Inc., Burlingame, Calif.).
COS7 cells were seeded at 10,000 cells/well onto an 18 mm coverslip in a 12-well plate. Cells were allowed to settle overnight in a cell culture incubator (NuAire NU-8600, NuAire, Inc., Plymouth, Minn.) set at 37° C. and 5% CO2. Cells were transfected with pCMV-eGFP (Clontech Laboratories, Inc., Burlingame, Calif.) or pCMV-SPORT6-p75 (ATCC) using Fugene HD (Roche Diagnostics Corp., Indianapolis, Ind.) and were incubated overnight. The binding assays were carried out according to Horton et al. with modifications. Synthetic TUF1 peptides (TUF1[43-54] (SEQ ID NO:1) and TUF1[24-40] (SEQ ID NO:3)) were generated (via Sigma Genosys, Sigma-Aldrich, St. Louis, Mo.) and were conjugated per manufacturer's recommendation with DyLight 549 NHS Ester (Thermo Fisher Scientific Inc., Waltham, Mass.), which have similar spectra to Cy3 dye. Unconjugated dye was removed with a dye removal column (Thermo Fisher Scientific Inc., Waltham, Mass.). Labeled peptides were diluted to 5 nM in 0.15M Sucrose/PBS and added (1.0 ml/well) to transfected COS7 cells. The binding reaction was incubated in the dark at room temperature for 90 min. Cells were rinsed thoroughly with PBS+0.05% Tween-20 to remove unbound peptide. Cells were then fixed with 4% Paraformaldehyde (5 minutes).
Following fixation, cells were permeabilized in PBS+0.1% Tween-20 for 10 minutes, rinsed thoroughly with PBS, and blocked in BSA (10 mg/ml) for 10 minutes. Cells were incubated with rabbit anti-p75^NTR antibody (1:10,000 dilution) for 30 minutes. Excess antibody was removed with PBS washes. Cells were then incubated with Alexa-488-goat anti-rabbit antibody (1:500 dilution, Invitrogen Corp., Carlsbad, Calif.). […]

[2] = system: TUF1 expression in adrenal glomerulosa cell dispersion; assay: Angiotensin II stimulation of adrenal glomerulosa cell dispersion (qPCR); assay type: cell-based, rat; settings: overnight incubation, 5-500 ng/mL
Protocol: Adrenal glands were dissected from adult Sprague-Dawley rats (280 g-300 g) and kept in cold PBS. Following fat removal, adrenal capsules were detached and placed into a few drops of dispersion media (DMEM, 1.0 g/L glucose, 0.32% collagenase (type I, GIBCO, Life Technologies Corp., Carlsbad, Calif.), 4% BSA (Sigma-Aldrich Co., St. Louis, Mo.), 0.1% DNAse (Sigma-Aldrich Co., St. Louis, Mo.). Adrenal capsules were then minced with surgical scissors, transferred to dispersion media and incubated for 90 minutes in a 37° C. and 10% CO2 cell culture incubator with trituration at 15 minute intervals. Dispersed cells were filtered through a 100 μm wire mesh into wash media (DMEM, 0.4% BSA, 0.28% HEPES) and centrifuged at 200×g for 5 minutes. Following supernatant removal, cells were rinsed in wash media and resuspended in incubation media (wash media+7.65 mM CaCl2). Dissociated cells were seeded at 75,000 cells/well in a 24-well plate and incubated at 37° C. and 10% CO2 prior to stimulation. […]
Following overnight incubation, total RNA was isolated from capsular/glomerulosa cells using an RNA-isolation kit (Zymo Research Corp., Orange, Calif.) and concentrations were measured by absorbance at 260 nm ([…]) using a NanoDrop ND-1000 (NanoDrop Technologies, Inc., Wilmington, Del.). […]

Row | binding to p75^NTR [1] | binding to p75^NTR ([1]; listed as TUF1^24-40) | Substance | TUF1 expression [2]
1 | did not bind cells expressing p75^NTR | did not bind the p75^NTR | TUF1[24-40]: synthetic TUF1 peptide, SEQ ID NO:3, without similarity to neurotrophic factors (NGF and BDNF) (GTIKLTPRLSKDAYSEM; Artifical sequence; TUF1 polypeptide) | –
2 | – | – | Angiotensin II (DRVYIHPF; Angiotensin-2; UniProt P01019 25-32, looked up) [angiotensin II (Sigma-Aldrich) used to stimulate adrenal glomerulosa cells] | activates TUF1 expression
